Test results as given in US7005505 (Genentech, dated 2006).

B1: D34A VEGF (ligand)
chain: APMAEGGGQNHHEVVKFMDVYQRSYCHPIETLVAIFQEYPDEIEYIFKPSCVPLMRCGGCCNDEGLECVPTEESNITMQIMRIKPHQGQHIGEMSFLQHNKCECRPKKDRARQENPCGPCSERRKHLFVQDPQTCKCSCKNTDSRCKARQLELNERTCRCDKPRR
notes: VEGF165 mutant from 293 cells, conditioned medium
B2: purified CHO-derived VEGF165 (ligand)
chain: APMAEGGGQNHHEVVKFMDVYQRSYCHPIETLVDIFQEYPDEIEYIFKPSCVPLMRCGGCCNDEGLECVPTEESNITMQIMRIKPHQGQHIGEMSFLQHNKCECRPKKDRARQENPCGPCSERRKHLFVQDPQTCKCSCKNTDSRCKARQLELNERTCRCDKPRR
notes: Homodimer; also called VEGF (CHO cell); wildtype VEGF165 derived from CHO cells
B3: E67A VEGF (ligand)
chain: APMAEGGGQNHHEVVKFMDVYQRSYCHPIETLVDIFQEYPDEIEYIFKPSCVPLMRCGGCCNDEGLACVPTEESNITMQIMRIKPHQGQHIGEMSFLQHNKCECRPKKDRARQENPCGPCSERRKHLFVQDPQTCKCSCKNTDSRCKARQLELNERTCRCDKPRR
notes: as for B1
B4: H11A, H12A, E13A VEGF (ligand)
chain: APMAEGGGQNAAAVVKFMDVYQRSYCHPIETLVDIFQEYPDEIEYIFKPSCVPLMRCGGCCNDEGLECVPTEESNITMQIMRIKPHQGQHIGEMSFLQHNKCECRPKKDRARQENPCGPCSERRKHLFVQDPQTCKCSCKNTDSRCKARQLELNERTCRCDKPRR
notes: as for B1
B5: E42N, E44S VEGF (ligand)
chain: APMAEGGGQNHHEVVKFMDVYQRSYCHPIETLVDIFQEYPDNISYIFKPSCVPLMRCGGCCNDEGLECVPTEESNITMQIMRIKPHQGQHIGEMSFLQHNKCECRPKKDRARQENPCGPCSERRKHLFVQDPQTCKCSCKNTDSRCKARQLELNERTCRCDKPRR
modifications: N-linked carbohydrate at position 42 (apparently glycosylated)
notes: Neo-glycosylation control mutant from 293 cells, conditioned medium
B6: D41A VEGF (ligand)
chain: APMAEGGGQNHHEVVKFMDVYQRSYCHPIETLVDIFQEYPAEIEYIFKPSCVPLMRCGGCCNDEGLECVPTEESNITMQIMRIKPHQGQHIGEMSFLQHNKCECRPKKDRARQENPCGPCSERRKHLFVQDPQTCKCSCKNTDSRCKARQLELNERTCRCDKPRR
notes: as for B1
B7: H90A, E93A VEGF (ligand)
chain: APMAEGGGQNHHEVVKFMDVYQRSYCHPIETLVDIFQEYPDEIEYIFKPSCVPLMRCGGCCNDEGLECVPTEESNITMQIMRIKPHQGQAIGAMSFLQHNKCECRPKKDRARQENPCGPCSERRKHLFVQDPQTCKCSCKNTDSRCKARQLELNERTCRCDKPRR
notes: VEGF165 mutant from 293 cells, conditioned medium; also called H9OA, E93A
B8: E103A VEGF (ligand)
chain: APMAEGGGQNHHEVVKFMDVYQRSYCHPIETLVDIFQEYPDEIEYIFKPSCVPLMRCGGCCNDEGLECVPTEESNITMQIMRIKPHQGQHIGEMSFLQHNKCACRPKKDRARQENPCGPCSERRKHLFVQDPQTCKCSCKNTDSRCKARQLELNERTCRCDKPRR
notes: as for B1
B9: K107A, K108A VEGF (ligand)
chain: APMAEGGGQNHHEVVKFMDVYQRSYCHPIETLVDIFQEYPDEIEYIFKPSCVPLMRCGGCCNDEGLECVPTEESNITMQIMRIKPHQGQHIGEMSFLQHNKCECRPAADRARQENPCGPCSERRKHLFVQDPQTCKCSCKNTDSRCKARQLELNERTCRCDKPRR
notes: as for B1
B10: KKDR(107-110)AAAA VEGF (ligand)
chain: APMAEGGGQNHHEVVKFMDVYQRSYCHPIETLVDIFQEYPDEIEYIFKPSCVPLMRCGGCCNDEGLECVPTEESNITMQIMRIKPHQGQHIGEMSFLQHNKCECRPAAAAARQENPCGPCSERRKHLFVQDPQTCKCSCKNTDSRCKARQLELNERTCRCDKPRR
notes: VEGF165 mutant from 293 cells, conditioned medium; also called K107A, K108A, D109A, R110A
B11: E72A, E73A VEGF (ligand)
chain: APMAEGGGQNHHEVVKFMDVYQRSYCHPIETLVDIFQEYPDEIEYIFKPSCVPLMRCGGCCNDEGLECVPTAASNITMQIMRIKPHQGQHIGEMSFLQHNKCECRPKKDRARQENPCGPCSERRKHLFVQDPQTCKCSCKNTDSRCKARQLELNERTCRCDKPRR
notes: as for B1
B12: H99A, K101A VEGF (ligand)
chain: APMAEGGGQNHHEVVKFMDVYQRSYCHPIETLVDIFQEYPDEIEYIFKPSCVPLMRCGGCCNDEGLECVPTEESNITMQIMRIKPHQGQHIGEMSFLQANACECRPKKDRARQENPCGPCSERRKHLFVQDPQTCKCSCKNTDSRCKARQLELNERTCRCDKPRR
notes: as for B1
B13: N75A VEGF (ligand)
chain: APMAEGGGQNHHEVVKFMDVYQRSYCHPIETLVDIFQEYPDEIEYIFKPSCVPLMRCGGCCNDEGLECVPTEESAITMQIMRIKPHQGQHIGEMSFLQHNKCECRPKKDRARQENPCGPCSERRKHLFVQDPQTCKCSCKNTDSRCKARQLELNERTCRCDKPRR
notes: Unglycosylated form of VEGF from 293 cells, conditioned medium
B14: R82A, K84A, H86A VEGF (ligand)
chain: APMAEGGGQNHHEVVKFMDVYQRSYCHPIETLVDIFQEYPDEIEYIFKPSCVPLMRCGGCCNDEGLECVPTEESNITMQIMAIAPAQGQHIGEMSFLQHNKCECRPKKDRARQENPCGPCSERRKHLFVQDPQTCKCSCKNTDSRCKARQLELNERTCRCDKPRR
notes: VEGF165 mutant from 293 cells, conditioned medium; also called R82A, K84A, H86 VEGF
B15: E30A VEGF (ligand)
chain: APMAEGGGQNHHEVVKFMDVYQRSYCHPIATLVDIFQEYPDEIEYIFKPSCVPLMRCGGCCNDEGLECVPTEESNITMQIMRIKPHQGQHIGEMSFLQHNKCECRPKKDRARQENPCGPCSERRKHLFVQDPQTCKCSCKNTDSRCKARQLELNERTCRCDKPRR
notes: as for B1
B16: K84A VEGF (ligand)
chain: APMAEGGGQNHHEVVKFMDVYQRSYCHPIETLVDIFQEYPDEIEYIFKPSCVPLMRCGGCCNDEGLECVPTEESNITMQIMRIAPHQGQHIGEMSFLQHNKCECRPKKDRARQENPCGPCSERRKHLFVQDPQTCKCSCKNTDSRCKARQLELNERTCRCDKPRR
notes: as for B1
B17: E5A VEGF (ligand)
chain: APMAAGGGQNHHEVVKFMDVYQRSYCHPIETLVDIFQEYPDEIEYIFKPSCVPLMRCGGCCNDEGLECVPTEESNITMQIMRIKPHQGQHIGEMSFLQHNKCECRPKKDRARQENPCGPCSERRKHLFVQDPQTCKCSCKNTDSRCKARQLELNERTCRCDKPRR
notes: as for B1
B18: D63A, E64A, E67A VEGF (ligand)
chain: APMAEGGGQNHHEVVKFMDVYQRSYCHPIETLVDIFQEYPDEIEYIFKPSCVPLMRCGGCCNAAGLACVPTEESNITMQIMRIKPHQGQHIGEMSFLQHNKCECRPKKDRARQENPCGPCSERRKHLFVQDPQTCKCSCKNTDSRCKARQLELNERTCRCDKPRR
notes: as for B1
B19: R105A VEGF (ligand)
chain: APMAEGGGQNHHEVVKFMDVYQRSYCHPIETLVDIFQEYPDEIEYIFKPSCVPLMRCGGCCNDEGLECVPTEESNITMQIMRIKPHQGQHIGEMSFLQHNKCECAPKKDRARQENPCGPCSERRKHLFVQDPQTCKCSCKNTDSRCKARQLELNERTCRCDKPRR
notes: as for B1
B20: E38A VEGF (ligand)
chain: APMAEGGGQNHHEVVKFMDVYQRSYCHPIETLVDIFQAYPDEIEYIFKPSCVPLMRCGGCCNDEGLECVPTEESNITMQIMRIKPHQGQHIGEMSFLQHNKCECRPKKDRARQENPCGPCSERRKHLFVQDPQTCKCSCKNTDSRCKARQLELNERTCRCDKPRR
notes: as for B1
B21: D109A, R110A VEGF (ligand)
chain: APMAEGGGQNHHEVVKFMDVYQRSYCHPIETLVDIFQEYPDEIEYIFKPSCVPLMRCGGCCNDEGLECVPTEESNITMQIMRIKPHQGQHIGEMSFLQHNKCECRPKKAAARQENPCGPCSERRKHLFVQDPQTCKCSCKNTDSRCKARQLELNERTCRCDKPRR
notes: as for B1
B22: R82A VEGF (ligand)
chain: APMAEGGGQNHHEVVKFMDVYQRSYCHPIETLVDIFQEYPDEIEYIFKPSCVPLMRCGGCCNDEGLECVPTEESNITMQIMAIKPHQGQHIGEMSFLQHNKCECRPKKDRARQENPCGPCSERRKHLFVQDPQTCKCSCKNTDSRCKARQLELNERTCRCDKPRR
notes: as for B1
B23: E64S VEGF (ligand)
chain: APMAEGGGQNHHEVVKFMDVYQRSYCHPIETLVDIFQEYPDEIEYIFKPSCVPLMRCGGCCNDSGLECVPTEESNITMQIMRIKPHQGQHIGEMSFLQHNKCECRPKKDRARQENPCGPCSERRKHLFVQDPQTCKCSCKNTDSRCKARQLELNERTCRCDKPRR
notes: preparation not described further

What was measured:
FLT-1 IgG [1] = target: T1, FLT-1 IgG (UniProt P17948 27-758); test: competition with 125I-VEGF165 for FLT-1-IgG, radioligand plate assay
T1 construct: Construct only cited from Park et al. 1994; also called FLT-IgG; FLT-1 receptor-IgG chimera; not shown: IgG part of the chimera (captured by anti-human IgG Fc)
Method: (§1) After the supernatant was discarded, the wells were washed three times in washing buffer (0.01% Tween 80 in PBS). The plate was blocked (300 µl/well) for one hr in assay buffer (0.5% BSA, 0.03% Tween 80, 0.01% Thimerosal in PBS). The supernatant was discarded and the wells were washed. […] Aliquots of this solution (100 µl) were added to pre-coated microtiter plates and incubated for 4 hr at ambient temperature with gentle agitation. The supernatant was discarded, the plate washed, and individual microtiter wells were counted by gamma scintigraphy (LKB model 1277).

FLT-1 IgG [2] = target: T1, FLT-1 IgG; test: competition with 125I-VEGF165 for FLT-1-IgG, radioligand plate assay, no heparin
Method: as §1

FLT-1 IgG [3] = target: T1, FLT-1 IgG; test: competition with 125I-VEGF165 for FLT-1-IgG, radioligand plate assay; remark: listed apart in the source
Method: as §1

KDR-IgG = target: T2, KDR-IgG (UniProt P35968 20-764); test: competition with 125I-VEGF165 for KDR-IgG, radioligand plate assay, no heparin
T2 construct: Construct only cited from Park et al. 1994; also called KDR receptor-IgG chimera; soluble KDR; not shown: IgG part of the chimera (captured by anti-human IgG Fc)
Method: as §1
In addition to the specific amino acid substitutions, the table indicates the mean residue number for the position of the mutation(s). For a given mutant, this number is the average of the altered positions.

T1 sequence (P17948 27-758): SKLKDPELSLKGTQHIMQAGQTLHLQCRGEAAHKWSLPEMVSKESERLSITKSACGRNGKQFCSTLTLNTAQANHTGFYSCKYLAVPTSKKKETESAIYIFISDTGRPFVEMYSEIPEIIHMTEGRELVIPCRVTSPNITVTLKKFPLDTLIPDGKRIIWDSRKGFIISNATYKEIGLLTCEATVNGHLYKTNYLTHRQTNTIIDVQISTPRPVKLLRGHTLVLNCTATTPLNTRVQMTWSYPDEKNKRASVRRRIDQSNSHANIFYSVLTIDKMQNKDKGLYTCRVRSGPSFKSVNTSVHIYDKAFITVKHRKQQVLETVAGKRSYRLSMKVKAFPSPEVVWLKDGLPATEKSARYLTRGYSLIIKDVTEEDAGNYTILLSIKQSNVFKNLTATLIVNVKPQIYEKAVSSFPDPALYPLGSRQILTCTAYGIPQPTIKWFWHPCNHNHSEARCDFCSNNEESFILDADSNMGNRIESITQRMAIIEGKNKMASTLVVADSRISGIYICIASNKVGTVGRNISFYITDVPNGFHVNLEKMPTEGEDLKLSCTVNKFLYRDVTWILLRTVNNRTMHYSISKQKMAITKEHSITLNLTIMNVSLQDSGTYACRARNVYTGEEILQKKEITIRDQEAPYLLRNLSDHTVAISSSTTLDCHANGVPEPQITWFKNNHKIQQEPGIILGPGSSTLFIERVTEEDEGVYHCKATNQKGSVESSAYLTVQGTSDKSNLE
T2 sequence (P35968 20-764): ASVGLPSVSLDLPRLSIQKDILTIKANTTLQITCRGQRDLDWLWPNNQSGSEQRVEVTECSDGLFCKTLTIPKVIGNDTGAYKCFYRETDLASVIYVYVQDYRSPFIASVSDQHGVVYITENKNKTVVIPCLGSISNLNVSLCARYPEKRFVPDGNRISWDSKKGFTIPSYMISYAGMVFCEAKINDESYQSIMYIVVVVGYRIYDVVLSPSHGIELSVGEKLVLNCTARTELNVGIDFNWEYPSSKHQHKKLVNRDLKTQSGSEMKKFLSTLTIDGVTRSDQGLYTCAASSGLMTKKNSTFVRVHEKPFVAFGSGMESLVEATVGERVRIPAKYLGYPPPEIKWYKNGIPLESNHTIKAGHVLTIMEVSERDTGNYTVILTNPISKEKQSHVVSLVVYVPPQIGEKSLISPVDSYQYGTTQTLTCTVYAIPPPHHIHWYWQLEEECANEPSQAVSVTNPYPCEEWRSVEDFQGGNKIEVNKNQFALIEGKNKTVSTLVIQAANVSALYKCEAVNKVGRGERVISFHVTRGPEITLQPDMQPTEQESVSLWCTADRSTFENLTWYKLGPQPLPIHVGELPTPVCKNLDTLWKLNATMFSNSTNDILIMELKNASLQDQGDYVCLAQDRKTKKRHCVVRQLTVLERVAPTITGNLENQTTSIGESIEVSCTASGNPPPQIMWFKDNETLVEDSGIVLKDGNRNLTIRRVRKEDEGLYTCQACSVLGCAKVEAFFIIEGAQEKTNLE

Row | Binder | IC50 (FLT-1 IgG [1]) [ng/mL] | IC50 (FLT-1 IgG [2]) [nM] | IC50 (FLT-1 IgG [3]) [ng/mL] | IC50 (KDR-IgG) [nM]
1 | B1 | 0.59 | 0.011 | – | –
2 | B2 | 0.95 | 0.019 | 0.95 | –
3 | B3 | – | 0.008 | 0.47 | –
4 | B4 | 0.62 | 0.02 | – | –
5 | B5 | 0.77 | 0.013 | – | –
6 | B6 | – | 0.022 | – | –
7 | B7 | 0.077 | 0.026 | – | –
8 | B8 | 0.74 | 0.017 | – | –
9 | B9 | 2.94 | 0.066 | – | –
10 | B10 | 2.42 | 0.054 | – | –
11 | B11 | 0.91 | 0.03 | – | –
12 | B12 | 1.33 | 0.03 | – | –
13 | B13 | 1.26 | 0.022 | – | –
14 | B14 | – | 0.048 | 1.7 | –
15 | B15 | – | 0.028 | – | –
16 | B16 | – | 0.024 | 1.91 | –
17 | B17 | – | 0.022 | – | –
18 | B18 | – | 0.78 | 44.6 | –
19 | B19 | 1.57 | 0.038 | – | –
20 | B20 | 0.87 | 0.015 | – | –
21 | B21 | 1.42 | 0.035 | – | 0.03
22 | B22 | – | 0.02 | 1.23 | –
23 | B23 | – | – | 1.9 | –
